B1: Rab5 GDP/GTP exchange factor (Bos taurus (Bovine)), O18973 (parent)
chain: MSLKSERRGIHVDQSELLCKKGCGYYGNPAWQGFCSKCWREEYHKARQKQIQEDWELAERLQREEEEAFASSQSSQGAQSLTFSKFEEKKTNEKTRKVTTVKKFFSASSRVGAKKAEIQEAKAPSPSINRQTSIETDRVSKEFIEFLKTFHKTGQEIYKQTKLFLEAMHYKRDLSIEEQSECTQDFYQNVAERMQTRGKVPPERVEKIMDQIEKYIMTRLYKYVFCPETTDDEKKDLAIQKRIRALHWVTPQMLCVPVNEEIPEVSDMVVKAITDIIEMDSKRVPRDKLACITKCSKHIFNAIKITKNEPASADDFLPTLIYIVLKGNPPRLQSNIQYITRFCNPSRLMTGEDGYYFTNLCCAVAFIEKLDAQSLNLSQEDFDRYMSGQTSPRKQESENWSPDACLGVKQMYKNLDLLSQLNERQERIMNEAKKLEKDLIDWTDGIAKEVQDIVEKYPLEIRPPNQSVAAIDSENVENDKLPPPLQPQVYAG

Variants of: B1
Conditions: with UBE2D3, P61077-1
UBE2D3, P61077-1, sequence (P61077 whole entry): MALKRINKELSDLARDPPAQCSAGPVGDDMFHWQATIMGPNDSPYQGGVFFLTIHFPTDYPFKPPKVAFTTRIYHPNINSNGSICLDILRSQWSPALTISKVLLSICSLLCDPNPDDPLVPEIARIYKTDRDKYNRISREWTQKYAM

Row | effect of a mutation on the interaction | Variant
1 | disrupting interaction | Y25A;Y26A
